Here are results for six molecules from US20230250148A1 (published 2023).

Like-named read-outs stand apart in the source and are kept apart here. Bounds are passed on as bounds.

For assay [1], the target named is T1, human insulin receptor (IR) on human IM-9 cells (human, UniProt P06213 28-1382).
T1 construct: whole, on cells; also called human IR
In words: competition with biotinylated RHI on IM-9 cells, flow cytometry, 4 C. The protocol:
(§1) 40 µL of an IM-9 cell suspension (8×10⁶ cells/mL) was then added to each well by multichannel pipette, mixed again gently and incubated on ice for 30 min to allow competitive binding on the IR on IM-9 cells. Cells were then washed twice with 275µL of ice-cold FACS wash buffer (HBSS/2mM EDTA/0.1% Na-azide + 0.5% horse serum) by centrifuging the V-bottom plate at 3000 rpm for 3 min and aspirating the supernatant. Cells were then resuspended in 40µL of FACS staining medium containing 1:100 diluted Streptavidin-PE (Life Technologies) for 20 min on ice. Cells were then washed once with 275 µL of ice-cold FACS buffer and finally fixed with 3% paraformaldehyde for 10 min at room temp. Cells were then washed once with 275 µL of ice-cold FACS buffer and resuspended in 250µl of FACS buffer for analysis.
In vitro insulin receptor binding for the insulin-Fc fusion proteins of SEQ ID NO: 36 and SEQ ID NO: 38 was tested according to the procedure of Example 12.
A general note: In flow cytometry, cells or beads pass a laser one at a time.

Assay [2] deals with T1, human insulin receptor (IR) on human …. Described as above. The method, then:
as §1
The two insulin-Fc fusion proteins were manufactured in HEK293 cells according to Example 1 and purified using a Protein A column according to Example 4. Their structures were confirmed according to Example 6 by non-reducing and reducing CE-SDS, and the sequences were further identified by LC-MS with glycan removal according to Example 8. Their %homodimer content was measured by size-exclusion chromatography according to Example 10, and their insulin receptor binding affinities were measured according to Example 12.
The source holds these as a separate data set.

Assay [3] has as its target T2, biotinylated recombinant human Fc(gamma)RI (human, UniProt P12314 16-288, biotinylated, site not stated).
T2 construct: Bought reagent; construct not described; also called rhFc(gamma)RI; Fc(gamma) receptor I
In words: ELISA, fusion protein coated, biotinylated rhFc(gamma)RI at 3000 ng/mL. The method, then:
(§2) The binding of insulin-Fc fusion proteins to the Fc(gamma)RI at pH 7.4 is conducted using an ELISA assay as follows using human Fc(gamma)RI (i.e., rhFc(gamma)RI). Insulin-Fc fusion proteins are diluted to 10 µg/mL in sodium bicarbonate buffer at pH 9.6 and coated on Maxisorp (Nunc) microtiter plates overnight at 4° C., after which the microplate strips are washed 5 times with PBST (PBS/0.05% Tween-20) buffer and blocked with Superblock blocking reagent (ThermoFisher). Serial dilutions of biotinylated rhFc(gamma)RI (recombinant human Fc(gamma)RI; R&D Systems) are prepared in PBST/10% Superblock buffer from 3000 ng/mL to 4.1 ng/mL and loaded at 100 µL/well onto the microplate strips coated with insulin-Fc fusion protein. The microtiter plate is incubated for 1 hour at room temperature after which time the microplate strips are washed 5 times with PBST and then loaded with 100 µL/well of streptavidin-HRP diluted 1:10000 in PBST/10% Superblock buffer. After incubating for 45 min, the microplate strips are washed again 5 times with PBST. TMB is added to reveal the bound Fc(gamma)RI proteins and is stopped with ELISA stop reagent (Boston Bioproducts). The plate is read in an ELISA plate reader at 450 nm, and the OD450 values (proportional to the binding of rhFc(gamma)RI to insulin-Fc protein) are plotted against log concentrations of rhFc(gamma)RI added to each well to generate binding curves using GraphPad Prism software. For groupings of compounds with somewhat similar curves, the OD450 at one of the higher concentrations, for instance at rhFc(gamma)RI concentrations of 3000 ng/mL, can be used to identify differences between coated insulin-Fc fusion protein compounds. […]
Finally, select compounds were tested for their likelihood to interact with the immune system by measuring their Fc(gamma) receptor binding activity according to the procedure of Example 15.
On the technique in general: ELISA stands for enzyme-linked immunosorbent assay.

Assay [4] has as its target T2, biotinylated recombinant human …. The assay can be described thus: ELISA, fusion protein coated, biotinylated rhFc(gamma)RI in solution. The protocol:
as §2

Assay [5] shares this target. Described as above. The source holds these as a separate data set.

T2 sequence (P12314 16-288 limits assumed): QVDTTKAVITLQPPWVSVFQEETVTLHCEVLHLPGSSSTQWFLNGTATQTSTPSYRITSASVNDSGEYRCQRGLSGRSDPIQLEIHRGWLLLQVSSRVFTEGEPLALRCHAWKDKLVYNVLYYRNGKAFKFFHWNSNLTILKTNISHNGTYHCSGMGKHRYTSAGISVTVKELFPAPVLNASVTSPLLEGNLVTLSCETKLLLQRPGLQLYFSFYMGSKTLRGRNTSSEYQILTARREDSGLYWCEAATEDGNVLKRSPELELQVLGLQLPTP
T1 sequence (P06213 28-1382): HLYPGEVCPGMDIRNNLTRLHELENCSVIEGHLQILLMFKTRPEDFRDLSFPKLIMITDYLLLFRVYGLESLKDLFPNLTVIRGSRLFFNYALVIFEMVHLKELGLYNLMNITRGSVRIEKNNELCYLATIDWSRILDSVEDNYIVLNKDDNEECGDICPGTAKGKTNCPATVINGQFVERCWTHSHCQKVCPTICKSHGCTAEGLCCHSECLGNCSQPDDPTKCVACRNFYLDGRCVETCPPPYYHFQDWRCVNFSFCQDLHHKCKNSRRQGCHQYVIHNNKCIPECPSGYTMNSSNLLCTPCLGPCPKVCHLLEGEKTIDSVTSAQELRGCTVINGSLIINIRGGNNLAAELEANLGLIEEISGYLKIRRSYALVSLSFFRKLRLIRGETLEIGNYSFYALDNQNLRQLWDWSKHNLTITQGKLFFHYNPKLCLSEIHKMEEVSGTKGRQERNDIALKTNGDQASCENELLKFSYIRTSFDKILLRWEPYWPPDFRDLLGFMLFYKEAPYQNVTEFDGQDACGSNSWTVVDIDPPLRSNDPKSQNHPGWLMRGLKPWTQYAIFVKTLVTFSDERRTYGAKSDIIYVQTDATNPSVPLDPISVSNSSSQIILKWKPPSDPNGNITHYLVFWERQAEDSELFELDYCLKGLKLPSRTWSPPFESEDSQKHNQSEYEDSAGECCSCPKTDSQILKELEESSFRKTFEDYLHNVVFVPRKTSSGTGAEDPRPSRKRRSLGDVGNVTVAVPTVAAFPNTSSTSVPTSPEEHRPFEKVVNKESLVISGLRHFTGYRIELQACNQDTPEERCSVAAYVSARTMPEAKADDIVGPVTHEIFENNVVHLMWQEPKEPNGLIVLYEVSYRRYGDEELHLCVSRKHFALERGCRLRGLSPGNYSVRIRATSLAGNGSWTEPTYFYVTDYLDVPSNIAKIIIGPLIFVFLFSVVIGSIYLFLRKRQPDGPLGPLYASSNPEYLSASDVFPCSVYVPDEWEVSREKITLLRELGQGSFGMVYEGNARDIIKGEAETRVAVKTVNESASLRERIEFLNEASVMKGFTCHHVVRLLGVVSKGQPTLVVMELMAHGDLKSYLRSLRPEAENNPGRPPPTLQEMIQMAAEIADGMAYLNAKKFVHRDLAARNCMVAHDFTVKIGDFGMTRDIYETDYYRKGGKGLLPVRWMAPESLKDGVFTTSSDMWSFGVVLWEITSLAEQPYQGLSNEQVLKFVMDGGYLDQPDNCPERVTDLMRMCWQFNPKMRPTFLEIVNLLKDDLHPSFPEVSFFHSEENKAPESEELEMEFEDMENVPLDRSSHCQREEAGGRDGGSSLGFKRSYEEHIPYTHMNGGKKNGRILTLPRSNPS

B1: insulin-Fc fusion protein of SEQ ID NO: 31 (Fc fusion)
chain: FVNQHLCGSDLVEALALVCGERGFFYTDPTGGGPRRGIVEQCCHSICSLYQLENYCNGGGGAGGGGRCTDTPPCPVPEPLGGPSVLIFPPKPKDILRITRTPEVTCVVLDLGREDPEVQISWFVDGKEVHTAKTQSREQQFNGTYRVVSVLPIEHQDWLTGKEFKCRVNHIDLPSPIERTISKARGRAHKPSVYVLPPSPKELSSSDTVSITCLIKDFYPPDIDVEWQSNGQQEPERKHRMTPPQLDEDGSYFLYSKLSVDKSRWQQGDPFTCAVMHETLQNHYTDLSLSHSPG
notes: HEK293; only 24% homodimer
A word on the IC50: it is the concentration that gives 50% inhibition. With B1, the IC50 in assay [1] is 2.73 µM.

B2: insulin-Fc fusion protein of SEQ ID NO: 48 (Fc fusion)
chain: FVNQHLCGSHLVEALALVCGERGFFYTDPTGGGPRRGIVEQCCTSICSLYQLENYCGGGGAGGGGDCPKCPAPEMLGGPSVFIFPPKPKDTLLIARTPEVTCVVVDLDPEDPEVQISWFVDGKQMQTAKTQPREEQFSGTYRVVSVLPIGHQDWLKGKQFTCKVNNKALPSPIERTISKARGQAHQPSVYVLPPSREELSKNTVSLTCLIKDFFPPDIDVEWQSNGQQEPESKYRTTPPQLDEDGSYFLYSKLSVDKSRWQRGDTFICAVMHEALHNHYTQESLSHSPG
Molecule B2 had an IC50 in assay [2] of more than 5 µM.

B3: insulin-Fc fusion protein of SEQ ID NO: 53 (Fc fusion)
chain: FVNQHLCGSHLVEALALVCGERGFFYTDPTGGGPRRGIVEQCCTSICSLYQLENYCGGGGGQGGGGQGGGGQGGGGGDCPKCPAPEMLGGPSVFIFPPKPKDTLLIARTPEVTCVVVDLDPEDPEVQISWFVDGKQMQTAKTQPREEQFSGTYRVVSVLPIGHQDWLKGKQFTCKVNNKALPSPIERTISKARGQAHQPSVYVLPPSREELSKNTVSLTCLIKDFFPPDIDVEWQSNGQQEPESKYRTTPPQLDEDGSYFLYSKLSVDKSRWQRGDTFICAVMHEALHNHYTQESLSHSPG
In assay [2], B3 had an IC50 of 1.28 µM.

B4: insulin-Fc fusion protein of SEQ ID NO: 36 (Fc fusion)
chain: FVNQHLCGSDLVEALALVCGERGFFYTDPTGGGPRRGIVEQCCHSICSLYQLENYCNGGGGAGGGGDCPKCPAPEMLGGPSVFIFPPKPKDTLLIARTPEVTCVVVDLDPEDPEVQISWFVDGKQMQTAKTQPREEQFNGTYRVVSVLPIGHQDWLKGKQFTCKVNNKALPSPIERTISKARGQAHQPSVYVLPPSREELSKNTVSLTCLIKDFFPPDIDVEWQSNGQQEPESKYRTTPPQLDEDGSYFLYSKLSVDKSRWQRGDTFICAVMHEALHNHYTQESLSHSPG
modifications: native N-glycosylation site cNg-NB139
notes: HEK293 homodimer
In the case of B4, the IC50 in assay [1] was 0.028 µM. Further, in assay [3], the OD450nm was found to be 0.428, the “OD450nm minus assay background” value stood at 0.371 and the “ratio to SEQ ID NO: 36” value came out at 1. In assay [4], the OD450nm amounted to 0.386, the “OD450nm minus assay background” value came out at 0.323 and the “ratio to SEQ ID NO: 36” value is 1.

B5: insulin-Fc fusion protein of SEQ ID NO: 40 (Fc fusion)
chain: FVNQHLCGSDLVEALALVCGERGFFYTDPTGGGPRRGIVEQCCHSICSLYQLENYCNGGGGAGGGGDCPKCPAPEMLGGPSVFIFPPKPKDTLLIARTPEVTCVVVDLDPEDPEVQISWFVDGKQMQTAKTQPREEQFSGTYRVVSVLPIGHQDWLKGKQFTCKVNNKALPSPIERTISKARGQAHQPSVYVLPPSREELSKNTVSLTCLIKDFFPPDIDVEWQSNGQQEPESKYRTTPPQLDEDGSYFLYSKLSVDKSRWQRGDTFICAVMHEALHNHYTQESLSHSPG
notes: non-glycosylated
Turning to B5, in assay [5], the “fold lower Fc(gamma)RI binding against SEQ ID NO: 36” value is 4 fold. Also, in assay [4], the OD450nm stood at 0.14, the “OD450nm minus assay background” value was determined as 0.077 and the “ratio to SEQ ID NO: 36” value was 0.24.

B6: insulin-Fc fusion protein of SEQ ID NO: 41 (Fc fusion)
chain: FVNQHLCGSDLVEALALVCGERGFFYTDPTGGGPRRGIVEQCCHSICSLYQLENYCNGGGGAGGGGDCPKCPAPEMLGGPSVFIFPPKPKDTLLIARTPEVTCVVVDLDPEDPEVQISWFVDGKQMQTAKTQPREEQFDGTYRVVSVLPIGHQDWLKGKQFTCKVNNKALPSPIERTISKARGQAHQPSVYVLPPSREELSKNTVSLTCLIKDFFPPDIDVEWQSNGQQEPESKYRTTPPQLDEDGSYFLYSKLSVDKSRWQRGDTFICAVMHEALHNHYTQESLSHSPG
notes: non-glycosylated
Turning to B6, the “fold Fc(gamma) receptor binding activity against SEQ ID NO: 40 and SEQ ID NO: 42” value in assay [5] is approximately 2 fold. In assay [4], the OD450nm stood at 0.204, the “OD450nm minus assay background” value is 0.141 and the “ratio to SEQ ID NO: 36” value came out at 0.44.
